The target of the experiment is rabbit polyclonal antiserum against the BL172 synthetic peptide of SEQ ID NO: 20. The experiment can be described thus: competition Western blot; antiserum pre-incubated overnight at 4 C with varying concentrations of peptide immunogen. (In general: In western blotting, separated proteins are transferred to a membrane and probed.)

For one molecule, concentration of peptide results are on record in patent publication US6949357.

B1: BL172 synthetic peptide of SEQ ID NO: 20 (peptide)
peptide: TQTCGNCTFRVCFEQCCPWTFMVKLINQNCD
For the molecule B1, the concentration of peptide at which antibody binding to the band was inhibited came out at 2.9 µM.
